This is an account of results in patent US20180071366A1.

Numbered stars: 1 amine (or outer) side, 2 acyl side, 3 side chain; on linkers, the order of the positions; unused ones are H or OH. Bridge positions count the residues as written; N and C are the ends. Square brackets hold non-standard residues; d marks the D form. * marks the point of attachment. C20 diacid = O=C(O)CCCCCCCCCCCCCCCCCCC(=O)*; γGlu = O=C(O)[C@H](CCC(=O)[*:2])N[*:1]; Hyp = O=C(O)[C@@H]1C[C@@H](O)CN1; NMeI = CC[C@H](C)[C@H](NC)C(=O)O; Aad = N[C@@H](CCCC(=O)O)C(=O)O; Dap = NC[C@H](N)C(=O)O; Sar = CNCC(=O)O

Assay [1] addresses recombinant human calcitonin receptor (hCT-R) (human), P30988. The experiment in a line: cell-based or functional assay.
Assay [2] deals with recombinant human amylin 3 receptor (hAMYR3) (human), P30988. The assay is described as follows: cell-based or functional assay.
recombinant human amylin 3 receptor (hAMYR3) (human), P30988, sequence (P30988 25-474, chain 1 of 2): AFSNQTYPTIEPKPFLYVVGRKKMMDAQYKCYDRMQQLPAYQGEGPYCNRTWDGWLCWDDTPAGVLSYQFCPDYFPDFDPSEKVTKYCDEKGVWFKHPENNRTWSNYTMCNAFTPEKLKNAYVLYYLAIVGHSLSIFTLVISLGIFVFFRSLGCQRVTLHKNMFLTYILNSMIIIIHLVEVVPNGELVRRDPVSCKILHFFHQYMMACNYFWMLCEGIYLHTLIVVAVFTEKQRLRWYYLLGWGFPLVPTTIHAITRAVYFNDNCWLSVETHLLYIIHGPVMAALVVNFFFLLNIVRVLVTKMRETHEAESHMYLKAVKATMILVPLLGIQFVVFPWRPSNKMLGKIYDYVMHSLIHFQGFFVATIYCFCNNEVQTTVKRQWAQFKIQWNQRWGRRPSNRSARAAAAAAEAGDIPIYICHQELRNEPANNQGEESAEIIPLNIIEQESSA
recombinant human amylin 3 receptor (hAMYR3) (human), P30988, sequence (O60896 24-148, chain 2 of 2, further chain): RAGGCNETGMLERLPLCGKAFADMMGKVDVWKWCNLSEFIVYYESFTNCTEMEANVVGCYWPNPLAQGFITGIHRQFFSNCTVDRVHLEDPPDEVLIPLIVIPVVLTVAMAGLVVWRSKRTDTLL

recombinant human calcitonin receptor (hCT-R) (human), P30988, sequence (P30988 25-474): as the sequence (P30988 25-474, chain 1 of 2) above

B1: Compound 44 (peptide)
peptide: {C20 diacid-γGlu}-KDGTATKATQRLANFLQRSSF[Sar]A[NMeI]LSSTETGSNT[Hyp]-NH2
modifications: lactam 2-7
SMILES: CC[C@H](C)[C@@H](C(=O)N[C@@H](CC(C)C)C(=O)N[C@@H](CO)C(=O)N[C@@H](CO)C(=O)N[C@H](C(=O)N[C@@H](CCC(=O)O)C(=O)N[C@H](C(=O)NCC(=O)N[C@@H](CO)C(=O)N[C@@H](CC(N)=O)C(=O)N[C@H](C(=O)N1C[C@H](O)C[C@H]1C(N)=O)[C@@H](C)O)[C@@H](C)O)[C@@H](C)O)N(C)C(=O)[C@H](C)NC(=O)CN(C)C(=O)[C@H](Cc1ccccc1)NC(=O)[C@H](CO)NC(=O)[C@H](CO)NC(=O)[C@H](CCCNC(=N)N)NC(=O)[C@H](CCC(N)=O)NC(=O)[C@H](CC(C)C)NC(=O)[C@H](Cc1ccccc1)NC(=O)[C@H](CC(N)=O)NC(=O)[C@H](C)NC(=O)[C@H](CC(C)C)NC(=O)[C@H](CCCNC(=N)N)NC(=O)[C@H](CCC(N)=O)NC(=O)[C@@H](NC(=O)[C@H](C)NC(=O)[C@@H]1CCCCNC(=O)C[C@H](NC(=O)[C@H](CCCCN)NC(=O)CC[C@H](NC(=O)CCCCCCCCCCCCCCCCCCC(=O)O)C(=O)O)C(=O)NCC(=O)N[C@@H]([C@@H](C)O)C(=O)N[C@@H](C)C(=O)N[C@@H]([C@@H](C)O)C(=O)N1)[C@@H](C)O
Regarding B1, in assay [1], the hCT-R EC50 [nM] (cAMP formation, 1321N1 cells expressing hCT-R) was 0.02 nM. For the same molecule, the hAMYR3 EC50 [nM] (cAMP formation, 1321N1 cells expressing hAMYR3) in assay [2] was found to be 0.009 nM.

B2: Compound 45 (peptide)
peptide: {C20 diacid-γGlu}-R[Dap]GTATDATERLAHFLQRSSF[Sar]A[NMeI]LSSTEVGSNT[Hyp]-NH2
modifications: lactam 2-7
SMILES: CC[C@H](C)[C@@H](C(=O)N[C@@H](CC(C)C)C(=O)N[C@@H](CO)C(=O)N[C@@H](CO)C(=O)N[C@H](C(=O)N[C@@H](CCC(=O)O)C(=O)N[C@H](C(=O)NCC(=O)N[C@@H](CO)C(=O)N[C@@H](CC(N)=O)C(=O)N[C@H](C(=O)N1C[C@H](O)C[C@H]1C(N)=O)[C@@H](C)O)C(C)C)[C@@H](C)O)N(C)C(=O)[C@H](C)NC(=O)CN(C)C(=O)[C@H](Cc1ccccc1)NC(=O)[C@H](CO)NC(=O)[C@H](CO)NC(=O)[C@H](CCCNC(=N)N)NC(=O)[C@H](CCC(N)=O)NC(=O)[C@H](CC(C)C)NC(=O)[C@H](Cc1ccccc1)NC(=O)[C@H](Cc1c[nH]cn1)NC(=O)[C@H](C)NC(=O)[C@H](CC(C)C)NC(=O)[C@H](CCCNC(=N)N)NC(=O)[C@H](CCC(=O)O)NC(=O)[C@@H](NC(=O)[C@H](C)NC(=O)[C@@H]1CC(=O)NC[C@H](NC(=O)[C@H](CCCNC(=N)N)NC(=O)CC[C@H](NC(=O)CCCCCCCCCCCCCCCCCCC(=O)O)C(=O)O)C(=O)NCC(=O)N[C@@H]([C@@H](C)O)C(=O)N[C@@H](C)C(=O)N[C@@H]([C@@H](C)O)C(=O)N1)[C@@H](C)O
With B2, the hCT-R EC50 [nM] (cAMP formation, 1321N1 cells expressing hCT-R) in assay [1] was 299 nM. Further, the hAMYR3 EC50 [nM] (cAMP formation, 1321N1 cells expressing hAMYR3) in assay [2] was 279 nM.

B3: Compound 41 (peptide)
peptide: {C20 diacid-γGlu}-RDGTATKATQRLADFLQRSSF[Sar]A[NMeI]LSSTEVGSNT[Hyp]-NH2
modifications: lactam 2-7
SMILES: CC[C@H](C)[C@@H](C(=O)N[C@@H](CC(C)C)C(=O)N[C@@H](CO)C(=O)N[C@@H](CO)C(=O)N[C@H](C(=O)N[C@@H](CCC(=O)O)C(=O)N[C@H](C(=O)NCC(=O)N[C@@H](CO)C(=O)N[C@@H](CC(N)=O)C(=O)N[C@H](C(=O)N1C[C@H](O)C[C@H]1C(N)=O)[C@@H](C)O)C(C)C)[C@@H](C)O)N(C)C(=O)[C@H](C)NC(=O)CN(C)C(=O)[C@H](Cc1ccccc1)NC(=O)[C@H](CO)NC(=O)[C@H](CO)NC(=O)[C@H](CCCNC(=N)N)NC(=O)[C@H](CCC(N)=O)NC(=O)[C@H](CC(C)C)NC(=O)[C@H](Cc1ccccc1)NC(=O)[C@H](CC(=O)O)NC(=O)[C@H](C)NC(=O)[C@H](CC(C)C)NC(=O)[C@H](CCCNC(=N)N)NC(=O)[C@H](CCC(N)=O)NC(=O)[C@@H](NC(=O)[C@H](C)NC(=O)[C@@H]1CCCCNC(=O)C[C@H](NC(=O)[C@H](CCCNC(=N)N)NC(=O)CC[C@H](NC(=O)CCCCCCCCCCCCCCCCCCC(=O)O)C(=O)O)C(=O)NCC(=O)N[C@@H]([C@@H](C)O)C(=O)N[C@@H](C)C(=O)N[C@@H]([C@@H](C)O)C(=O)N1)[C@@H](C)O
Consider B3, for which, in assay [1], the hCT-R EC50 [nM] (cAMP formation, 1321N1 cells expressing hCT-R) came out at 0.095 nM. Further, the hAMYR3 EC50 [nM] (cAMP formation, 1321N1 cells expressing hAMYR3) in assay [2] was determined as 0.024 nM.

B4: Compound 39 (peptide)
peptide: {C20 diacid-γGlu}-KDGTATKATQRLA[Aad]FLQRSSF[Sar]A[NMeI]LSSTEVGSNT[Hyp]-NH2
modifications: lactam 2-7
SMILES: CC[C@H](C)[C@@H](C(=O)N[C@@H](CC(C)C)C(=O)N[C@@H](CO)C(=O)N[C@@H](CO)C(=O)N[C@H](C(=O)N[C@@H](CCC(=O)O)C(=O)N[C@H](C(=O)NCC(=O)N[C@@H](CO)C(=O)N[C@@H](CC(N)=O)C(=O)N[C@H](C(=O)N1C[C@H](O)C[C@H]1C(N)=O)[C@@H](C)O)C(C)C)[C@@H](C)O)N(C)C(=O)[C@H](C)NC(=O)CN(C)C(=O)[C@H](Cc1ccccc1)NC(=O)[C@H](CO)NC(=O)[C@H](CO)NC(=O)[C@H](CCCNC(=N)N)NC(=O)[C@H](CCC(N)=O)NC(=O)[C@H](CC(C)C)NC(=O)[C@H](Cc1ccccc1)NC(=O)[C@H](CCCC(=O)O)NC(=O)[C@H](C)NC(=O)[C@H](CC(C)C)NC(=O)[C@H](CCCNC(=N)N)NC(=O)[C@H](CCC(N)=O)NC(=O)[C@@H](NC(=O)[C@H](C)NC(=O)[C@@H]1CCCCNC(=O)C[C@H](NC(=O)[C@H](CCCCN)NC(=O)CC[C@H](NC(=O)CCCCCCCCCCCCCCCCCCC(=O)O)C(=O)O)C(=O)NCC(=O)N[C@@H]([C@@H](C)O)C(=O)N[C@@H](C)C(=O)N[C@@H]([C@@H](C)O)C(=O)N1)[C@@H](C)O
With B4, in assay [1], the hCT-R EC50 [nM] (cAMP formation, 1321N1 cells expressing hCT-R) is 0.094 nM. In addition, the hAMYR3 EC50 [nM] (cAMP formation, 1321N1 cells expressing hAMYR3) in assay [2] worked out at 0.024 nM.

B5: Compound 43 (peptide)
peptide: {C20 diacid-γGlu}-KDGTATKATQRLANFLQRSSF[Sar]A[NMeI]LSSTEVGSNT[Hyp]-NH2
modifications: lactam 2-7
SMILES: CC[C@H](C)[C@@H](C(=O)N[C@@H](CC(C)C)C(=O)N[C@@H](CO)C(=O)N[C@@H](CO)C(=O)N[C@H](C(=O)N[C@@H](CCC(=O)O)C(=O)N[C@H](C(=O)NCC(=O)N[C@@H](CO)C(=O)N[C@@H](CC(N)=O)C(=O)N[C@H](C(=O)N1C[C@H](O)C[C@H]1C(N)=O)[C@@H](C)O)C(C)C)[C@@H](C)O)N(C)C(=O)[C@H](C)NC(=O)CN(C)C(=O)[C@H](Cc1ccccc1)NC(=O)[C@H](CO)NC(=O)[C@H](CO)NC(=O)[C@H](CCCNC(=N)N)NC(=O)[C@H](CCC(N)=O)NC(=O)[C@H](CC(C)C)NC(=O)[C@H](Cc1ccccc1)NC(=O)[C@H](CC(N)=O)NC(=O)[C@H](C)NC(=O)[C@H](CC(C)C)NC(=O)[C@H](CCCNC(=N)N)NC(=O)[C@H](CCC(N)=O)NC(=O)[C@@H](NC(=O)[C@H](C)NC(=O)[C@@H]1CCCCNC(=O)C[C@H](NC(=O)[C@H](CCCCN)NC(=O)CC[C@H](NC(=O)CCCCCCCCCCCCCCCCCCC(=O)O)C(=O)O)C(=O)NCC(=O)N[C@@H]([C@@H](C)O)C(=O)N[C@@H](C)C(=O)N[C@@H]([C@@H](C)O)C(=O)N1)[C@@H](C)O
Turning to B5, the hCT-R EC50 [nM] (cAMP formation, 1321N1 cells expressing hCT-R) in assay [1] was 0.021 nM. Besides, the hAMYR3 EC50 [nM] (cAMP formation, 1321N1 cells expressing hAMYR3) in assay [2] is 0.007 nM.

B6: Compound 40 (peptide)
peptide: {C20 diacid-γGlu}-RDGTATKATQRLA[Aad]FLQRSSF[Sar]A[NMeI]LSSTEVGSNT[Hyp]-NH2
modifications: lactam 2-7
SMILES: CC[C@H](C)[C@@H](C(=O)N[C@@H](CC(C)C)C(=O)N[C@@H](CO)C(=O)N[C@@H](CO)C(=O)N[C@H](C(=O)N[C@@H](CCC(=O)O)C(=O)N[C@H](C(=O)NCC(=O)N[C@@H](CO)C(=O)N[C@@H](CC(N)=O)C(=O)N[C@H](C(=O)N1C[C@H](O)C[C@H]1C(N)=O)[C@@H](C)O)C(C)C)[C@@H](C)O)N(C)C(=O)[C@H](C)NC(=O)CN(C)C(=O)[C@H](Cc1ccccc1)NC(=O)[C@H](CO)NC(=O)[C@H](CO)NC(=O)[C@H](CCCNC(=N)N)NC(=O)[C@H](CCC(N)=O)NC(=O)[C@H](CC(C)C)NC(=O)[C@H](Cc1ccccc1)NC(=O)[C@H](CCCC(=O)O)NC(=O)[C@H](C)NC(=O)[C@H](CC(C)C)NC(=O)[C@H](CCCNC(=N)N)NC(=O)[C@H](CCC(N)=O)NC(=O)[C@@H](NC(=O)[C@H](C)NC(=O)[C@@H]1CCCCNC(=O)C[C@H](NC(=O)[C@H](CCCNC(=N)N)NC(=O)CC[C@H](NC(=O)CCCCCCCCCCCCCCCCCCC(=O)O)C(=O)O)C(=O)NCC(=O)N[C@@H]([C@@H](C)O)C(=O)N[C@@H](C)C(=O)N[C@@H]([C@@H](C)O)C(=O)N1)[C@@H](C)O
For B6, the hCT-R EC50 [nM] (cAMP formation, 1321N1 cells expressing hCT-R) in assay [1] was determined as 0.028 nM. Further, the hAMYR3 EC50 [nM] (cAMP formation, 1321N1 cells expressing hAMYR3) in assay [2] stood at 0.008 nM.

B7: Compound 42 (peptide)
peptide: {C20 diacid-γGlu}-RDGTATKATQRLADFLQRSSF[Sar]A[NMeI]LSSTETGSNT[Hyp]-NH2
modifications: lactam 2-7
SMILES: CC[C@H](C)[C@@H](C(=O)N[C@@H](CC(C)C)C(=O)N[C@@H](CO)C(=O)N[C@@H](CO)C(=O)N[C@H](C(=O)N[C@@H](CCC(=O)O)C(=O)N[C@H](C(=O)NCC(=O)N[C@@H](CO)C(=O)N[C@@H](CC(N)=O)C(=O)N[C@H](C(=O)N1C[C@H](O)C[C@H]1C(N)=O)[C@@H](C)O)[C@@H](C)O)[C@@H](C)O)N(C)C(=O)[C@H](C)NC(=O)CN(C)C(=O)[C@H](Cc1ccccc1)NC(=O)[C@H](CO)NC(=O)[C@H](CO)NC(=O)[C@H](CCCNC(=N)N)NC(=O)[C@H](CCC(N)=O)NC(=O)[C@H](CC(C)C)NC(=O)[C@H](Cc1ccccc1)NC(=O)[C@H](CC(=O)O)NC(=O)[C@H](C)NC(=O)[C@H](CC(C)C)NC(=O)[C@H](CCCNC(=N)N)NC(=O)[C@H](CCC(N)=O)NC(=O)[C@@H](NC(=O)[C@H](C)NC(=O)[C@@H]1CCCCNC(=O)C[C@H](NC(=O)[C@H](CCCNC(=N)N)NC(=O)CC[C@H](NC(=O)CCCCCCCCCCCCCCCCCCC(=O)O)C(=O)O)C(=O)NCC(=O)N[C@@H]([C@@H](C)O)C(=O)N[C@@H](C)C(=O)N[C@@H]([C@@H](C)O)C(=O)N1)[C@@H](C)O
Regarding B7, in assay [1], the hCT-R EC50 [nM] (cAMP formation, 1321N1 cells expressing hCT-R) came out at 0.006 nM. In assay [2], the hAMYR3 EC50 [nM] (cAMP formation, 1321N1 cells expressing hAMYR3) was 0.003 nM.
